The values that follow come from patent US20260125455A1 (CLEVELAND CLINIC FOUNDATION, published 2026).

Assay [1] deals with T1, human complement protein C6 (human, UniProt P13671 22-934).
T1 construct: also called human C6; C6 antigen
Put plainly: ELISA, expression supernatant, anti-human kappa detection. How it is done: (§1) The chimeric molecules, MoC601 HuG4K and MoC601 HuG1KFab, were tested for C6 binding in the form of expression supernatants. In this experiment, the human molecules were detected with an HRP-conjugated goat anti-human kappa chain reagent, which gave relative low signals. However, the binding of both chimeric molecules to C6 was confirmed. The EC₅₀ value for MoC601 HuG4K (0.43 nM) was higher than that of the mouse antibody (0.07 nM), though this was lower than in previous experiments. A further experiment was performed to find a more suitable anti-human antibody detection reagent. MoC601 HuG4K from expression supernatant was detected with three different secondary antibodies. Both anti-human IgG Fc-specific and Fab-specific detection gave higher signals than the anti-kappa chain reagent but the Fc-specific detection yielded a very low EC₅₀ (0.03 nM).
Background: In an ELISA, binding on a coated surface is turned into a signal by an enzyme label.

The target of assay [2] is T1, human complement protein C6. Briefly: ELISA, expression supernatant, anti-human IgG Fc-specific detection. How it is done: as §1
The target is the same in assay [3]. Put plainly: BLI (Octet), antibody on Protein G biosensors, 1:1 fit, experiment 1. For orientation: In BLI a coated tip is dipped into the sample, and binding shifts an interference pattern.
Assay [4] shares this target. Briefly: C6-binding ELISA, A650 nm; sample 'C6-depleted human serum' (28 days at 37 C). How it is done: For the serum stability assessment, samples of the purified candidate antibodies are normally incubated in mouse, human and cynomolgus serum at 37 C for 28 days and then tested in an antigen-binding ELISA. Since the anti-C6 antibodies are expected to bind to both human and cynomolgus C6 but not mouse C6, we anticipated that incubating in human or cynomolgus sera would reduce ELISA binding due to occupation of the antibody binding sites by C6 protein from the sera. Therefore, the chimeric and humanized antibodies were tested with human and mouse sera and with human sera from which the C6 protein has been depleted. […]
Binding ELISAs used Nunc Maxisorp 384-well plates, wells coated with C6, C5b,6 complex or C5 (Complement Technology Inc, TX) and goat anti-human IgG (Fab specific) peroxidase secondary antibodies (Sigma-Aldrich, A0293) for detection. For the thermal stability assay, IgG supernatants were diluted to their EC₈₀ concentration, incubated at different temperatures for 10 min and C6 binding measured by ELISA with the binding signal plotted against temperature. Kinetics of C6 binding were measured by capturing antibodies from supernatant samples using Protein G biosensors and performing a 20 min association step with 2.5 nM C6 and a 20 min dissociation step using the Octet RED96. […]

The target is the same in assay [5]. Put plainly: BLI (Octet), full kinetics, C6 0.16-10 nM, 1:1 fit. How it is done:
For two of the best performing antibodies, C601HFKC4 HuG4K (aka 3713) and C601HFKI HuG4K, a full kinetic experiment was run using seven concentrations of C6 (0.16-10 nM) and association and dissociation steps of 20 min. The datasets were processed by subtracting the no antigen controls and the data were fitted to a 1:1 binding model. Binding curves giving Req/Rₘₐₓ ratios>90% or showing poor fitting were excluded from analysis.

Assay [6] has the same target. Put plainly: C6-binding ELISA, A650 nm; sample 'PBS, non-incubated' (kept at 4 C). As for the experimental part: The C6-binding ELISA was then used to compare the binding abilities of the C601 antibodies that had been incubated in the 3 different sera to antibody samples that were incubated in PBS at 37 C or kept at 4 C (non-incubated).
Binding ELISAs used Nunc Maxisorp 384-well plates, wells coated with C6, C5b,6 complex or C5 (Complement Technology Inc, TX) and goat anti-human IgG (Fab specific) peroxidase secondary antibodies (Sigma-Aldrich, A0293) for detection. For the thermal stability assay, IgG supernatants were diluted to their EC₈₀ concentration, incubated at different temperatures for 10 min and C6 binding measured by ELISA with the binding signal plotted against temperature. Kinetics of C6 binding were measured by capturing antibodies from supernatant samples using Protein G biosensors and performing a 20 min association step with 2.5 nM C6 and a 20 min dissociation step using the Octet RED96. […] Binding of C6 measured using a three-fold concentration series of C6 from 0.03 nM-25 nM and data were fitted using a 1:1 model in two independent experiments.
The Uncle instrument (Unchained Labs) was used to monitor unfolding via intrinsic fluorescence and aggregation by static light scattering across a temperature gradient to obtain melting temperatures (Tₘ). […] Isoelectric points were determined by capillary isoelectric focusing using a PA800+ (Beckman Coulter).

T1 sequence (P13671 22-934 limits assumed): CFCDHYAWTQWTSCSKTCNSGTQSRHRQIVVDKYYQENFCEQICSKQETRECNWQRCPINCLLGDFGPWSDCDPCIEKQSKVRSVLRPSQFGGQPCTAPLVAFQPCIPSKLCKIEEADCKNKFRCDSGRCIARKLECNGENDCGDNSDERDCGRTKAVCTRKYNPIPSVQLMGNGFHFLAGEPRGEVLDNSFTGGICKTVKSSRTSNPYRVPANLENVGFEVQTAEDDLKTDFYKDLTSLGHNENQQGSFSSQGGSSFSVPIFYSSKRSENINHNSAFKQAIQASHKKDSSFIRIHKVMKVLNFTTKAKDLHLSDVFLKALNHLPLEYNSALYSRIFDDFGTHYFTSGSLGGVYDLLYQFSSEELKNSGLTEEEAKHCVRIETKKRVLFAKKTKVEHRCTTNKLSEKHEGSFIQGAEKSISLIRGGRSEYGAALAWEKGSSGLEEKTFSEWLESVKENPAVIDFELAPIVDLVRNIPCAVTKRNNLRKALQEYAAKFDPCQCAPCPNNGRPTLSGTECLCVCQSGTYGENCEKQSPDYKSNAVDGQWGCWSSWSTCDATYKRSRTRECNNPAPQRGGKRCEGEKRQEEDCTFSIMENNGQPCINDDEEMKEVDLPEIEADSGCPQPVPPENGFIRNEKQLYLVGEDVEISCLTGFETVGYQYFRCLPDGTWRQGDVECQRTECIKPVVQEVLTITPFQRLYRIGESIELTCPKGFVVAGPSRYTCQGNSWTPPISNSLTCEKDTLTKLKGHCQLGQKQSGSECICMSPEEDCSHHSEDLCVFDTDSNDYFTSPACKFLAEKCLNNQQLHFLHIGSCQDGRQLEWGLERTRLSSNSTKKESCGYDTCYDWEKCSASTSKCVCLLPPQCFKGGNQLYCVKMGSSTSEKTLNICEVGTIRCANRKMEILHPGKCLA

B1: MoC601 HuG4K (chimeric C601 antibody) (antibody, human IgG4 S228P, kappa, V domains shown)
VH: QVQLQQSGAELVKPGASVKISCKASGYAFSDYWMNWVKQRPGKGLEWIGQIYPGDDDTNYNGKFKGKATLTADKSSSTAYMQLSSLTSEDSAVYFCAREGYYGYTYVEYFDVWGTGTTVTVSS
VL: QIVLTQSPAIMSVSPGEKVTLTCSASSSVSYMHWYQQKSGTSPKRWIYDTSKLASGVPARFSGSGSGTSYSLTISSMEAEDAATYYCQQWTSNPLTFGAGTKLELRR
notes: also called chimeric antibody; chimeric 1C9
What is called EC50 is the midpoint of the concentration-response curve. A lower EC50 goes with greater potency. What is called Kd is a measure of binding affinity in units of concentration. The term koff denotes a measure of how fast the partners let go of each other. Read a low koff as a long-lived complex. As a reminder, the kon is the second-order rate constant of association. For B1, the EC50 in assay [1] turned out to be 0.43 nM; in assay [2], 0.03 nM; in assay [4], 0.15 nM. Moreover, binding in assay [3] was put at a Kd of 0.36 nM. This molecule also returned a koff in assay [3] of 0.00025 s⁻¹. Also, the association rate constant (kon) in assay [3] came out at 690000 M⁻¹ s⁻¹.

B2: C601HFKC4 HuG4K (antibody, human IgG4 S228P, kappa)
heavy: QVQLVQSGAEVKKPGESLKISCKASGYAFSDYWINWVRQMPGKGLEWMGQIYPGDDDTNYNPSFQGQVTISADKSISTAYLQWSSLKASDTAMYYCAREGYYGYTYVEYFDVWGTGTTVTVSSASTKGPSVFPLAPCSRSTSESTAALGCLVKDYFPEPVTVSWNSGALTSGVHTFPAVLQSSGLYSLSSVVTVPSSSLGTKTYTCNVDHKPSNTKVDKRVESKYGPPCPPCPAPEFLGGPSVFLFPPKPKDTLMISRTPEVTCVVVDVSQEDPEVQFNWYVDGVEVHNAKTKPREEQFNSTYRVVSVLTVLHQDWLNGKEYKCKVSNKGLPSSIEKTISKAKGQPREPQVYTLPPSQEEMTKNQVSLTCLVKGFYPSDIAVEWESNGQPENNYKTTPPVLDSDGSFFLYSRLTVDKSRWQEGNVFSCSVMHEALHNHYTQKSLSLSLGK
light: QIVLTQSPATLSLSPGERATLSCRASSSVSYLHWYQQKPGQSPRLWIYDTSKRATGIPARFSGSGSGTDYTLTISSLEPEDFAVYYCQQWTSNPLTFGQGTKLEIKRTVAAPSVFIFPPSDEQLKSGTASVVCLLNNFYPREAKVQWKVDNALQSGNSQESVTEQDSKDSTYSLSSTLTLSKADYEKHKVYACEVTHQGLSSPVTKSFNRGEC
notes: also called 3713; clone 3713
For B2, in assay [5], the affinity, expressed as Kd, was 0.11 nM; the off-rate constant (koff) was found to be 0.00013 s⁻¹; the kon is 1.19e+06 M⁻¹ s⁻¹. The EC50 in assay [6] worked out at 0.17 nM.
